Results reported in the supplement of paper PMC9112550, “Optimization of the antimicrobial peptide Bac7 by deep mutational scanning” (BMC Biology, 2022).

System: Escherichia coli TOP10
Experiment: shrunken log2 fold change of peptide-encoding DNA abundance (4.5 h post-induction vs induction); higher = less antimicrobial activity (less host growth inhibition)
Details: time post-induction: 4.5 h; library: site-saturation at positions 5, 18, 19, 20
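Further: peptides expressed intracellularly from a pBAD plasmid library in pooled LB shake-flask culture, induced with 0.3% L-arabinose, DNA abundance read by NGS, three biological replicates, DESeq2 with apeglm shrinkage.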

Sequence | shrunken log2 fold change
RRIRYRPPRLPRPRPRPEATPRP | 0.28
RRIRDRPPRLPRPRPRPYEKPRP | -0.191
RRIRQRPPRLPRPRPRPAMLPRP | 0.0266
RRIRIRPPRLPRPRPRPHRRPRP | -0.056
RRIRPRPPRLPRPRPRPMMVPRP | -0.0739
RRIRKRPPRLPRPRPRPTTFPRP | 0.18
RRIRNRPPRLPRPRPRPAKSPRP | 0.163
RRIRIRPPRLPRPRPRPQEPPRP | -0.04
RRIRERPPRLPRPRPRPNSHPRP | -0.8
RRIRIRPPRLPRPRPRPDNVPRP | 0.0156
RRIRHRPPRLPRPRPRPLDKPRP | -0.0374
RRIRWRPPRLPRPRPRPMRGPRP | 0.754
RRIRGRPPRLPRPRPRPRFCPRP | 0.569
RRIRIRPPRLPRPRPRPDWKPRP | 0.036
RRIRHRPPRLPRPRPRPFMAPRP | -0.548
RRIRDRPPRLPRPRPRPCQFPRP | 0.0215
RRIRSRPPRLPRPRPRPIVFPRP | -0.0485
RRIRGRPPRLPRPRPRPNPYPRP | -0.0945
RRIRKRPPRLPRPRPRPSKFPRP | -0.16
RRIRFRPPRLPRPRPRPQCHPRP | -0.358
RRIRFRPPRLPRPRPRPKEGPRP | 0.0546

Sequence | shrunken log2 fold change
RRIRIRPPRLPRPRPRPEHNPRP | -0.505
RRIRIRPPRLPRPRPRPYGDPRP | 0.0112
RRIRWRPPRLPRPRPRPSGSPRP | 0.316
RRIRIRPPRLPRPRPRPYILPRP | -0.463
RRIRGRPPRLPRPRPRPVGMPRP | 0.907
RRIRHRPPRLPRPRPRPFQKPRP | 0.00797
RRIRERPPRLPRPRPRPGTSPRP | 1.87
RRIRLRPPRLPRPRPRPEHFPRP | 0.0339
RRIRQRPPRLPRPRPRPKQFPRP | 0.102
RRIRWRPPRLPRPRPRPMINPRP | -0.212
RRIRTRPPRLPRPRPRPWGHPRP | -0.066
RRIRYRPPRLPRPRPRPAVIPRP | -0.0517
RRIRPRPPRLPRPRPRPASYPRP | -0.212
RRIRCRPPRLPRPRPRPWSWPRP | 0.0159
RRIRNRPPRLPRPRPRPISVPRP | -0.00409
RRIRWRPPRLPRPRPRPQEYPRP | -0.0612
RRIRYRPPRLPRPRPRPDELPRP | 0.0702
RRIRVRPPRLPRPRPRPNQTPRP | -0.0286
RRIRPRPPRLPRPRPRPKEWPRP | -0.00152
RRIRLRPPRLPRPRPRPAWVPRP | -0.0218
RRIRDRPPRLPRPRPRPPVVPRP | -0.0109

Sequence | shrunken log2 fold change
RRIRNRPPRLPRPRPRPRNEPRP | 0.121
RRIRSRPPRLPRPRPRPKNQPRP | -0.177
RRIRVRPPRLPRPRPRPKTSPRP | -0.128
RRIRVRPPRLPRPRPRPSFTPRP | -0.301
RRIRFRPPRLPRPRPRPRLNPRP | -0.228
RRIRFRPPRLPRPRPRPNAKPRP | -0.00228
RRIRRRPPRLPRPRPRPRWPPRP | 0.598
RRIRHRPPRLPRPRPRPHNTPRP | -0.709
RRIRARPPRLPRPRPRPVKFPRP | -0.0699
RRIRARPPRLPRPRPRPQVQPRP | 0.0275
RRIRHRPPRLPRPRPRPTFKPRP | -0.537
RRIRYRPPRLPRPRPRPSFDPRP | -1.2
RRIRCRPPRLPRPRPRPGIDPRP | 0.0673
RRIRMRPPRLPRPRPRPESMPRP | 2.6
RRIRMRPPRLPRPRPRPIWLPRP | 0.0637
RRIRLRPPRLPRPRPRPERMPRP | -0.0208
RRIRWRPPRLPRPRPRPNHGPRP | -0.16
RRIRMRPPRLPRPRPRPHPFPRP | 0.169
RRIRERPPRLPRPRPRPSKQPRP | 0.0844
RRIRPRPPRLPRPRPRPWCLPRP | -0.514
RRIRMRPPRLPRPRPRPKPEPRP | 0.0854
